The source of these data is publication PMC13083842 (Communications Biology, 2026).

For experiment [1], the target named is T1, interleukin-6 (IL-6) (human, UniProt P05231).
T1 construct: interleukin-6, human; A biotinylated IL-6 was used in the cell uptake assays; for SPR and ELISA the IL-6 was amine-coupled or coated
Put plainly: SPR; IL-6 amine-coupled on a CM5 chip (Biacore T200); analytes in multi-cycle kinetics, 0.39 to 100 nM, 30 µL/min, 180 s association, 1200 s dissociation, HBS-N + 10 mM CaCl2; global fit, 1:1 model; where koff was below the detection limit KD was estimated from kon and the theoretical maximum koff. The settings on record: both partners purified.

For experiment [2], the target named is T2, soluble IL-6 receptor (sIL-6R) (human (from the printed accession …, UniProt P08887)).
T2 construct: interleukin-6 receptor (IL-6R), soluble variant, residues 20-355, UniProt P08887; Two versions were made: 1; C-terminal His9-Tag; 2; C-terminal Twin-Strep-Tag, 3xGS-Linker and TEV cleavage site; Only the ELISA on sASGPR (anti-His-HRP detection) tells that the His9 version was used; Strongly and heterogeneously glycosylated; also called wild-type sIL-6R; unmodified sIL-6R; source: Expi293F, …
Put plainly: SPR; IL-6R amine-coupled on a CM5 chip (Biacore T200); tocilizumab variants as analytes, multi-cycle kinetics, 0.39 to 100 nM; global fit, 1:1 model. The settings on record: both partners purified. Background: In SPR one partner is held on a chip, and binding of the other changes the refractive index at the surface.

T1 sequence (P05231 30-212): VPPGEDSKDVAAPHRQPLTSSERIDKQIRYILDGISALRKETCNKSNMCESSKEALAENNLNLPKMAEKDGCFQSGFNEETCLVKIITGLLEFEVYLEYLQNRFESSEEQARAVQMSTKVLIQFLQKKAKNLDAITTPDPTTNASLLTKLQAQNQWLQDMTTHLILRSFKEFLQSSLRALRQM

B1: siltuximab (antibody, V domains shown)
VH: EVQLVESGGKLLKPGGSLKLSCAASGFTFSSFAMSWFRQSPEKRLEWVAEISSGGSYTYYPDTVTGRFTISRDNAKNTLYLEMSSLRSEDTAMYYCARGLWGYYALDYWGQGTSVTVSS
VL: QIVLIQSPAIMSASPGEKVTMTCSASSSVSYMYWYQQKPGSSPRLLIYDTSNLASGVPVRFSGSGSGTSYSLTISRMEAEDAATYYCQQWSGYPYTFGGGTKLEIK
notes: heavy chain of siltuximab, chimeric (human-murine) anti-IL-6 antibody; light chain of siltuximab; Full-length IgG; also called wildtype siltuximab; unmodified siltuximab; source: HEK293T, transfected, purified from supernatant (Protein A, SEC); copies: 2 + 2
B1: in experiment [1], the Kd – broadly, the constant that tells how readily two partners part at equilibrium – was below 45 pM; the koff (in general, the rate constant with which the complex falls apart) was below 1e-05 s⁻¹; the kon (commonly a measure of how fast the partners come together) is 445000 M⁻¹ s⁻¹.

B2: siltuximab-TGN 1:10 (antibody, V domains shown)
VH: EVQLVESGGKLLKPGGSLKLSCAASGFTFSSFAMSWFRQSPEKRLEWVAEISSGGSYTYYPDTVTGRFTISRDNAKNTLYLEMSSLRSEDTAMYYCARGLWGYYALDYWGQGTSVTVSS
VL: QIVLIQSPAIMSASPGEKVTMTCSASSSVSYMYWYQQKPGSSPRLLIYDTSNLASGVPVRFSGSGSGTSYSLTISRMEAEDAATYYCQQWSGYPYTFGGGTKLEIK
notes: as the heavy chain of m1; as the light chain of m1; Heterogeneous conjugate; See m1 for the DrugBank ids; also called TGN-modified siltuximab variant 1:10; source: HEK293T, transfected, purified (Protein A, SEC), then conjugated with Tris-GalNAc-PEG5-sulfo-NHS ester at 1:10; copies: 2 + 2
With B2, in experiment [1], the Kd is below 45 pM and the koff is below 1e-05 s⁻¹.

B3: siltuximab-TGN 1:5 (antibody, V domains shown)
VH: EVQLVESGGKLLKPGGSLKLSCAASGFTFSSFAMSWFRQSPEKRLEWVAEISSGGSYTYYPDTVTGRFTISRDNAKNTLYLEMSSLRSEDTAMYYCARGLWGYYALDYWGQGTSVTVSS
VL: QIVLIQSPAIMSASPGEKVTMTCSASSSVSYMYWYQQKPGSSPRLLIYDTSNLASGVPVRFSGSGSGTSYSLTISRMEAEDAATYYCQQWSGYPYTFGGGTKLEIK
notes: as the heavy chain of m1; as the light chain of m1; Heterogeneous conjugate; See m1 for the DrugBank ids; also called TGN-modified siltuximab variant 1:5; source: HEK293T, transfected, purified (Protein A, SEC), then conjugated with Tris-GalNAc-PEG5-sulfo-NHS ester at 1:5; copies: 2 + 2
B3: in experiment [1], the Kd was below 45 pM and the koff is below 1e-05 s⁻¹.

B4: siltuximab-TGN 1:1 (antibody, V domains shown)
VH: EVQLVESGGKLLKPGGSLKLSCAASGFTFSSFAMSWFRQSPEKRLEWVAEISSGGSYTYYPDTVTGRFTISRDNAKNTLYLEMSSLRSEDTAMYYCARGLWGYYALDYWGQGTSVTVSS
VL: QIVLIQSPAIMSASPGEKVTMTCSASSSVSYMYWYQQKPGSSPRLLIYDTSNLASGVPVRFSGSGSGTSYSLTISRMEAEDAATYYCQQWSGYPYTFGGGTKLEIK
notes: as the heavy chain of m1; as the light chain of m1; Heterogeneous conjugate; See m1 for the DrugBank ids; also called TGN-modified siltuximab variant 1:1; source: HEK293T, transfected, purified (Protein A, SEC), then conjugated with Tris-GalNAc-PEG5-sulfo-NHS ester at 1:1; copies: 2 + 2
Consider B4, for which, in experiment [1], the Kd is below 45 pM and the koff was below 1e-05 s⁻¹.

B5: siltuximab-TGN 1:25 (antibody, V domains shown)
VH: EVQLVESGGKLLKPGGSLKLSCAASGFTFSSFAMSWFRQSPEKRLEWVAEISSGGSYTYYPDTVTGRFTISRDNAKNTLYLEMSSLRSEDTAMYYCARGLWGYYALDYWGQGTSVTVSS
VL: QIVLIQSPAIMSASPGEKVTMTCSASSSVSYMYWYQQKPGSSPRLLIYDTSNLASGVPVRFSGSGSGTSYSLTISRMEAEDAATYYCQQWSGYPYTFGGGTKLEIK
notes: as the heavy chain of m1; as the light chain of m1; Heterogeneous conjugate; See m1 for the DrugBank ids; also called the 1:25 variant; source: HEK293T, transfected, purified (Protein A, SEC), then conjugated with Tris-GalNAc-PEG5-sulfo-NHS ester at 1:25; copies: 2 + 2
On to B5, for which, in experiment [1], the Kd was below 45 pM, the koff was below 1e-05 s⁻¹ and the kon was 221000 M⁻¹ s⁻¹.

B6: tocilizumab-TGN 1:25 (antibody, V domains shown)
VH: QVQLQESGPGLVRPSQTLSLTCTVSGYSITSDHAWSWVRQPPGRGLEWIGYISYSGITTYNPSLKSRVTMLRDTSKNQFSLRLSSVTAADTAVYYCARSLARTTAMDYWGQGSLVTVSS
VL: DIQMTQSPSSLSASVGDRVTITCRASQDISSYLNWYQQKPGKAPKLLIYYTSRLHSGVPSRFSGSGSGTDFTFTISSLQPEDIATYYCQQGNTLPYTFGQGTKVEIK
notes: as the heavy chain of m6; as the light chain of m6; Heterogeneous conjugate; See m6 for the DrugBank ids; also called the 1:25 variant; source: HEK293T, transfected, purified (Protein A, SEC), then conjugated with Tris-GalNAc-PEG5-sulfo-NHS ester at 1:25
As to B6, the “fold weaker affinity than wildtype tocilizumab” value in experiment [2] is at most 5 fold.
